Source: publication PMC6933771

Biological target: human prothrombin (human)

**Q.** Which amidolytic activity of the SCG-PT complex on the chromogenic thrombin substrate S-2238, specific activity relative to human thrombin (9.1 IU/nmol) does the source give for staphylocoagulase (natural protein) here?
**A.** The amidolytic activity of the SCG-PT complex on the chromogenic thrombin substrate S-2238, specific activity relative to human thrombin (9.1 IU/nmol) was 5.5 IU/nmol.

**Q.** And the clotting activity of the SCG-PT complex in human plasma, specific activity relative to human thrombin?
**A.** The clotting activity of the SCG-PT complex in human plasma, specific activity relative to human thrombin was 4.2 IU/nmol.

**Q.** And the clotting activity of the SCG-PT complex on purified human fibrinogen (3.0 g/L), specific activity relative to human thrombin?
**A.** The clotting activity of the SCG-PT complex on purified human fibrinogen (3.0 g/L), specific activity relative to human thrombin was 3.6 IU/nmol.
